# The DeepSol protein solubility set
# Experiment: soluble on expression in E. coli; label from the status in PepcDB or PDB records
row,Sequence,soluble on expression in E. coli
1,MGSDKIHHHHHHMKILFLADEESKMYWEYFKKEDFKGIDIIVSCGDLNPSYLSFLTTMVGVPLLYVHGNHDDKYNVKPPEGCICIEDEIYEYEGVRFLGLGGSNRYKPGENQYTQKEMTKRVKKLWWKLKRKNGFDVLVTHSPAKGLHDGEDTCHTGFDVFNRLIEQYKPRYFVHGHVHMSYGRQFVRLDKVGETTVINAYEKYIVEI,not soluble
2,MTYIIREMKQEDIHAVQSVAKIAWHDTYEGIIPREIQDSFLDEAYSDEKMKYRLKNTHLFVAEEEGEVIGFANFSPVRLQNEAELGAIYLLPDQQGKGIGSALLQRGIKALNGIRKLYIHVEAANEKGKRFYEAKGFAELEQFEEDFEGHMMQTVRMVLYV,not soluble
3,MAGDPMKKTLTVTVSSVLAFLALNNAAHAQQHGTQVKTPVQHNYVSNVQAQTQSPTTYTVVAGDSLYKIALEHHLTLNQLYSYNPGVTPLIFPGDVISLVPQNKVKQTKAVKTPVRKASQAKKVVKQPVQQASKKVVVKQAPKQAVAKTVNVAYKPAQVQKSVPTVPVAHNYNKSVANRGNLYAYGNCTYYAFDRRAQLGRSIGSLWGNANNWNYAAKVAGFKVDKTPEVGAIFQTAAGPYGHVGVVESVNPNGTITVSEMNYAGFNVKSSRTILNPGKYNYIHLEHHHHHH,not soluble
4,MSYYHHHHHHLESTSLYKKAGLVQRITIAPQGPEFSRFVMGYWRLMDWNMSARQLVSFIEEHLDLGVTTVDHADIYGGYQCEAAFGEALKLAPHLRERMEIVSKCGIATTAREENVIGHYITDRDHIIKSAEQSLINLATDHLDLLLIHRPDPLMDADEVADAFKHLHQSGKVRHFGVSNFTPAQFALLQSRLPFTLATNQVEISPVHQPLLLDGTLDQLQQLRVRPMAWSCLGGGRLFNDDYFQPLRDELAVVAEELNAGSIEQVVNAWVLRLPSQPLPIIGSGKIERVRAAVEAETLKMTRQQWFRIRKAALGYDVP,soluble
5,MRGSHHHHHHGSEEASSTGRNFNVEKINGEWHTIILASDKREKIEDNGNFRLFLEQIHVLEKSLVLKFHGRVRLLNNWDCSELSMVADKTEKAGEYSVTYDGFNTFTIPKTDYDNFLMAHLINEKDGETFQLMGLYGREPDLSSDIKERFAQLCEEHGILRENIIDLSNANRCLQARE,soluble
6,KHDGIPAECTTIYNRGEHTSGMYAIRPSNSQVFHVYCDVISGSPWTLIQHRIDGSQNFNETWENYKYGFGRLDGEFWLGLEKIYSIVKQSNYVLRIELEDWKDNKHYIEYSFYLGNHETNYTLHLVAITGNVPNAIPENKDLVFSTWDHKAKGHFNCPEGYSGGWWWHDECGENNLNGKYNKPRAKSKPERRRGLSWKSQNGRLYSIKSTKMLIHPTDSESFE,soluble
7,MSLIRPQLDDIQTAQAQEKNLLNEFREKQSKLRNLQQYQHQLEEMRASFNQQLTQLPKESEIPGLVEDINMTGVNSGLKFKNIRLENEVKQEFFIEQPISIEATGDYHAFGAFVSGIAALPRIVTLHDFVIEAKQSKEKTDIPEVDYAVKAKTYRYIGVDEQGNASAVQANTSTTTPAQGGTPEGHHHHHH,soluble
8,MTVDDIMVPRSEIIGIDINDDWKSILRQLSHSPHGRIVLYRDSLDDAISMLRVREAWRLMSEKKEFTKETMLRAADEIYFVPEGTPLSTQLVKFQRNKKKVGLVVNEYGDIQGLVTVEDILEEIVGDFTTSMSPTLAEEVTPQNDGSVIIDGTANVREINKAFNWHLPEDDARTVNGVILEALEEIPVAGTRVRIGKYDIDILDVQDNMIKQVKVFPVKPLRESVAE,not soluble
9,MGHHHHHHSHALKRLEVEVELFNQPSEELENFDFIVSVGGDGTILRILQKLKRCPPIFGINTGRVGLLTHASPENFEVELKKAVEKFEVERFPRVSCSAMPDVLALNEIAVLSRKPAKMIDVALRVDGVEVDRIRCDGFIVATQIGSTGYAFSAGGPVVEPYLECFILIPIAPFRFGWKPYVVSMERKIEVIAEKAIVVADGQKSVDFDGEITIEKSEFPAVFFKNEKRFRNL,not soluble
10,GGGGSSGGSTGGGSGSGPVTIEIGSKGEELAFDKTELTVSAGQTVTIRFKNNSAVQQHNWILVKGGEAEAANIANAGLSAGPAANYLPADKSNIIAESPLANGNETVEVTFTAPAAGTYLYICTVPGHYPLMQGKLVVN,soluble
11,MGSDKIHHHHHHMTVEPLHILHLISTSGLFGAERVLLELASQSRSLGMHVTVAALKNSRNPNTELAEAARGAGLPTLVVPCGGRFDAGVVGILTEEIRKSGTQIIHSHNYKSNYYARQAAELSGARWIVTNHGRRAGFKLFLYALLDAMLVRKADRVVAVSPKIADRLAVLGIGRDGLSVIDNGVDFSRFESLPTKADAGNVLGVAGSSYVIGTVGALTEEKGHRHLLQAVKSVRKSIPNVVCVVVGDGPERRRLEQLAREEGIEQTAIFTGKRDDVPSILPRFDLFVLPSLSEGLPMALLEAQAAKVPAIATNVGAIATVINNGVTGVVVSPGDVPALAEAIIRSHDEADKARCMALKGYERVKVHYSADTMAQRYIEIYRGMIGAGGAIG,not soluble
12,GMSVKVSVDDIDGITEVLNVYMNAAESGTGEEMSAAFHKDATIFGYVGDKLAFNGPIKDLYDWHNSNGPAKNVQSRITNIDIVGTVAHARVEAENWTNFKFSDLFLLLKLDGKWTIVNKVFHLHA,soluble
13,HGPEGTVEIETVKLARSVFSKLHEICCSWVKDFPLRRRPQLYYETSIHAIKNMRRKMEDKHVCIPDFNMLFNLEDQEEQAYFAVFDGHGGVDAAIYASIHLHVNLVRQEMFPHDPAEALCRAFRVTDERFVQKAARESLRCGTTGVVTFIRGNMLHVAWVGDSQVMLVRKGQAVELMKPHKPDREDEKQRIEALGGCVVWFGAWRVNGSLSVSRAIGDAEHKPYICGDADSASTVLDGTEDYLILACDGFYDTVNPDEAVKVVSDHLKENNGDSSMVAHKLVASARDAGSSDNITVIVVFLRDMNKVRASSPSPL,soluble
14,MNTPLQRPLADSTGLIENDAHALAVATALAQEFSIDAALRDRERQIPYSELDAVSRSGILGISIPLAFGGAEVNNVILAKVIAQIAQADGSLGQILQNHFHTLEALRVYGSRAQQQRIFAEVLAGALFGVAVDEQGTTNSQICTAVLAPSGEGYRISGRKFCATCAPYTRQILASAVDAQGARYMVFISLDALGLSIVDDGSCFGQRTVGGGSVMFDNVYVTSSDVVPFQVSLNDPNCVERHAQFMHAAVGTGIARAAYEDTLRFVREHARPWPEAAVDKARDDPLTIIEIGRLIIRLHAAEALLERAGAAVDLNRKAVCAENVALASMVVAAAQTLSTEVSLAAGSKLIELGGARATLSDYGLDRHWRNARVHTLYDPARWGPHQQGQQKLAPF,not soluble
15,MGSDKIHHHHHHMRLITFDASYDPIAEESKTVRVYVFEPEKIERNLIFLHGIGNGNIPYLLWFGEKFREYNIKTWFLILPYHEKRAPENWSGGEPFYHSSPSFCVKRFDEAVQDVIDLVDVVKRDNDKPISLMGFSFGGMITTIALAREKRIEKGVICCSGGDWRWINWYSPYTERLRELYRKNGNEYGCRSEKDCIKNRRNAPEIIKSFNSIEDIRKKPPVGCYFYDPASFAPFVDQKVLFFWALFDHVIPYQSYACLHKLLKNKKTVYLPSGHKGSYFFRRYIAKRVVRFLIDDE,not soluble
16,DALESKKINEALLKQGEALINQLNDRARADTVRYAEEVVKTAAERVKEASQNLTDYRIANGVFDLKAQSEVQMGLVSKLQDELIVIQTQLDQVKAVTPENPQIPGLQAREQSLRKEIDQQLRAISGGGHSSLSNQAAEYQRVYLENQLAEQQLAAAMTSLESAKVEADRQQLYLEVISQPSLPDLAHEPKR,soluble
17,MGSDKIHHHHHHMEITIFGKGNMGQAIGHNFEIAGHEVTYYGSKDQATTLGEIVIMAVPYPALAALAKQYATQLKGKIVVDITNPLNFDTWDDLVVPADSSAAQELQQQLPDSQVLKAFNTTFAATLQSGQVNGKEPTTVLVAGNDDSAKQRFTRALADSPLEVKDAGKLKRARELEAMGFMQMTLAASEQIGWTGGFAVVK,not soluble
18,DKLYPCQCGKSFTHKSQRDRHMSMHLGLRPYGCGVCGKKFKMKHHLVGHMKIHTGIKPYECNICAKRFMWRDSFHRHVTSCTKSYEAAKAEQNTTEA,soluble
19,MGSDKIHHHHHHMAPMKIGLILEGTYPYVTGGVSNWVHTLLTNLPEFEFEIYHLKAVTEPQTIKYKIPENVTAVHELNIFGDFESDSSQKANLESLERIVSQLSIERDIRSIVSFAIDFIRENAGKNVRKMLKTKGFWNILLKIYEEFFSERGLTEFYWMIMNLFLPVVNVLQFVPNRCDLFHVPSTGYASLVGMNGKFVHDVPLVITEHGIYHKEREREIILSTWVPDAYKPMWIELFRIISMIAYRVSDALTTLYRKNQIYQLELGADPEKMFIIPNGINVEEYDLPPEKHEGFVVGFVGRVARIKDLKTAIRAISIVKEVVGEKLTFLIIGPVDAEDYLAECKRLVRVLRLEDTVEFLGPQNVKEYYPKFDLLLLSSVSEGQPLVILEAMAAGVPIVATDVGACRDIIYDKDGQCGIVVPPKDHLSMSKAIIKLYEDKELRDTFSKNAKKVVQKYRVETMIEKYRNLYLSLTSKKTVSTV,not soluble
20,MGHHHHHHSHLGHSTMYMWAMGDREVFIELAEALTGARLTHSYPIPGGARRDIPADFPDMARRAVRYMRKRLDEYAKIFLNNPVIRSRLEGVGVIPKKAAAEMGIVGPNARGSGIDYDVRLVHPYDAYPEIDFEVPVFEEGDALARTYVRVEEIKQSLRIIEQAVEWLEKHPREPIVDKYLYGKYPPLHKKVLEAEGRAKLLPTVAAMKVPPGRAIGRAETGRGETVYYVESDGGVNPYRVRIVTASARNVIAFKYVLPGHRVMDIPAIYGSLDYFPPEADR,not soluble
21,SLQVNTPQTEETANQAKRHVADYTMDGISATALDERGVTKYRFTGVHMNHYEDDLTYDVTFPALRIYAPDRPQVTARADLGKMNGEGSIIDLYDNAKVVRAQGPDLRQDPLMTADSTYFQVLLNDDVVRTDKPVELHRGPSVMNANGLVFNNVTRQVQLLGNVRGRIEGLGAPKQ,soluble
22,MGSDKIHHHHHHMDTELARTFLTVAATGNFVAAASRLHVTQSTVSARIQTLETTLGARLFQRGRNGAELTASGKRFLRHAKHLVRTVEQALHDVGLPQGFHDVLTLSGRIALWEGFLPHWVAWMREAAPDVSLRLEIGFEADIMQGLIEGTTDIGVMYTPTSRPGLVVEPLFDENLMLVTSDLARGWPEEGYIHIDWGPEFHAQFSDHFPDAPPPTVVANIGWLGVQQLLTYGGSGYFPQRLVRQLIEDGRLWRVPDSPQFKLTAWMVFPREGSATLKSALDGLRTLARDEQARL,not soluble
23,MSLKRLNLYIFGENNILDILIKNGSVFSGNNNEPESNNIGIKKSKIDFIGKESPESKKVIDAKDYIVTPGFIDIHTHSDISFLVDPEADSKLTQGVTFEFLGNCGMSFCAPLNSASKQTLSDRLSKYNSDVKIDWNDFTDWLNKIEKNIPSINVAAQLGHGVLRSYVMGMKAVSATPEDIEAMKNIVRSSIDQGVLGFSTGLWYAPGSYSHTEEIVEITKVVAEHDLLYSSHIRSESDDASGLFPAHAEAIEIGRRTGAKIQISHVKSVGPQFWGRGKELLEGMYKAREEGIDVAGDQYPYEWSSTPTSGCMFPRWSLEGGREKTLERLKDKNIREAIKSETINYINRFHGSAGCVLAEFSNDKKLEGLNLSEISEEFSCSPEEAAMRLYEISEGSFVLHSMEEQDVDTIGMSDIIAVASDGNSLRNTGPLSNGKPHPRSYGTNTRFIEDMVVNKKKVSISNAIYRMTSLPASRIGLKNRGEIKKGYFADINIFKPEELREKATYVDPHQYSTGMKWVLVNGKIALKDGKKIEGRFGKVVRSKEGEGHHHHHH,soluble
24,TALIASGLAPQPFYFYGFLPRQNKERTQAIEKLAAREETWILYESPHRLKETLKAIIKITGNDRKMVLCRELTKRFEEFLRGTVEDALNWATDEEVRGEFCIIIEGNANP,not soluble
